The values below come from CN113817063A (XIAMEN INNOBIOMAX BIOTECHNOLOGY CO LTD, dated 2021).

For experiment [1], the target named is T1, DP48 (DCP 38-45 8肽) (human).
T1 peptide: DVFWAKYT
Kind of experiment: 8-mer peptide competition ELISA on coated 抗原1. On the technique in general: In an ELISA, binding on a coated surface is turned into a signal by an enzyme label.

The target in experiment [2] is T2, DP42 (DCP 32-39 8肽) (human).
T2 peptide: ESSTATDV
Kind of experiment: 8-mer peptide competition ELISA on coated 抗原1.

Experiment [3] concerns the target T3, DP46 (DCP 36-43 8肽) (human).
T3 peptide: ATDVFWAK
In words: 8-mer peptide competition ELISA on coated 抗原1.

Experiment [4] concerns the target T4, DP45 (DCP 35-42 8肽) (human).
T4 peptide: TATDVFWA
Kind of experiment: 8-mer peptide competition ELISA on coated 抗原1.

For experiment [5], the target named is T5, DP41 (DCP 31-38 8肽) (human).
T5 peptide: LESSTATD
In words: 8-mer peptide competition ELISA on coated 抗原1.

Experiment [6] addresses T6, DP47 (DCP 37-44 8肽) (human).
T6 peptide: TDVFWAKY
Kind of experiment: 8-mer peptide competition ELISA on coated 抗原1.

Experiment [7] has as its target T7, 人异常凝血酶原 (Des-γ-carboxyprothrombin) (human, UniProt P00734 44-622, 第6，7，14，16，19，20，25，26，29和32位的Glu残基一个或多个羧化不全 (not fully gamma-carboxylated)).
T7 construct: also called DCP; PIVKA-II
Kind of experiment: sandwich ELISA, 11H8-3 capture, 10D9-1-HRP detection, DCP in controls and sera.

Experiment [8] addresses T1, DP48 (DCP 38-45 8肽). Kind of experiment: competition ELISA: 100ng/ml antibody pre-incubated with 50ug/ml 8-mer peptide, read on coated 抗原1.
Experiment [9] concerns the target T2, DP42 (DCP 32-39 8肽). Described as above.
Experiment [10] deals with T8, DP43 (DCP 33-40 8肽) (human).
T8 peptide: SSTATDVF
The description is as above.

The target of experiment [11] is T3, DP46 (DCP 36-43 8肽). The experiment is described as above.
Experiment [12] concerns the target T9, DP44 (DCP 34-41 8肽) (human).
T9 peptide: STATDVFW
The description is as above.

Experiment [13] addresses T4, DP45 (DCP 35-42 8肽). The experiment is described as above.
The target of experiment [14] is T5, DP41 (DCP 31-38 8肽). Described as above.
Experiment [15] has as its target T6, DP47 (DCP 37-44 8肽). The description is as above.
The target of experiment [16] is T10, DP1 (DCP 1-15 15肽) (human).
T10 peptide: ANTFLEEVRKGNLER
Kind of experiment: peptide competition ELISA on coated 抗原1.

For experiment [17], the target named is T11, DP2 (DCP 11-25 15肽) (human).
T11 peptide: GNLERECVEETCSYE
In words: peptide competition ELISA on coated 抗原1.

Experiment [18] has as its target T12, DP5 (DCP 41-55 15肽) (human).
T12 peptide: WAKYTACETARTPRD
In words: peptide competition ELISA on coated 抗原1.

In experiment [19] the target is T13, DP3 (DCP 21-35 15肽) (human).
T13 peptide: TCSYEEAFEALESST
Kind of experiment: peptide competition ELISA on coated 抗原1.

B1: 抗人DCP单克隆抗体10D9-1 (antibody, IgG1, V domains shown)
VH: EVQLQQSGPELVKPGASVKMSCKASGYTFTSYVMHWVKQKPGQGLEWIGYIFPYNDVTEYNEKFKGKATLTSDKSSSTAYMELSSLTSEDSAVYYCARWGGRNYWGQGTSVTV
VL: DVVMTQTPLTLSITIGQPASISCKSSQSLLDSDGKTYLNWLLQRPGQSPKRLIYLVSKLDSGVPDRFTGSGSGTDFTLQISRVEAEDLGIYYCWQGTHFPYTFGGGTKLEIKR
notes: also called 抗人异常凝血酶原单克隆抗体; 10D9-1-HRP
B1: the binding result in experiment [1], in experiment [2], in experiment [3], in experiment [4], in experiment [5] and in experiment [6] was “no binding (tested: 50ug/ml多肽)” in each case. The binding result is “binds” in experiment [7]; “no binding (tested: 判定标准为:大于90%以上显示有良好的竞争效果; 50ug/ml多肽)” in [16]; “no binding (tested: 判定标准为:大于90%以上显示有良好的竞争效果; 50ug/ml多肽)” in experiment [17]; “no binding (tested: 判定标准为:大于90%以上显示有良好的竞争效果; 50ug/ml多肽)” in [18]; “no binding (tested: 判定标准为:大于90%以上显示有良好的竞争效果; 50ug/ml多肽)” in experiment [19]. Also, the “competition rate (对照样品OD值-检测样品OD值)/对照样品OD值” value in experiment [8] is 10%; in [9], 10%; in [10], 33%; in experiment [11], 4%; in experiment [12], 29%; in [13], -9%. For the same molecule, the results for the “competition rate (对照样品OD值-检测样品OD值)/对照样品OD值” value in [14] and in experiment [15] were -2% and 11%, respectively.
